Results from doi:10.1101/2022.09.02.506315 (bioRxiv, 2022).

B1: Thermus thermophilus RNA polymerase ω subunit (natural protein)
chain: MAEPGIDKLFGMVDSKYRLTVVVAKRAQQLLRHGFKNTVLEPEERPKMQTLEGLFDDPNAVTWAMKELLTGRLVFGENLVPEDRLQKEMERLYPVEREE
B2: Thermus thermophilus transcription termination factor Rho (natural protein, UniProt Q5SJE9 1-426, looked up)
chain: MRRKETLQETPLTYQELASKILPELHLLAQEAGIEGYKRMKKDQLIMALLERQTQGEGLRLVKGYLEISQDGYGFLTENLHNLESRVAIVSAGLIKQYALRAGDYVVGQARPPRENERYATLLKVEAVNNLDPEAAKNRPRFDELTPQFPDRQIRLETTPDELSTRVIDLLAPIGRGQRGLIVAPPKAGKTTLLKKIANAVLKNEPDIKVIVLLIDERPEEVTDFRESVQGAEVIASTFDEPPQNHIRVAEFVHERAKRIVEEGGHVMILLDSITRLARANNLVTPPTGRTLSGGLDSAALYFPKRFLGAARNIRGGGSLTILATALVETGSRMDDVIFEEFKGTGNMELHLSRRLEERRIFPAIDILKSGTRREELLLGEEVTHKMWLLRKVLADMDPAEAMEMLLARLARTKNNKEFLASLAAR

How the values were obtained:
Assay in all cases: cryo-EM structure
[1] = biological target: B2
[2] = biological target: Thermus thermophilus RNA polymerase β' subunit (Thermus thermophilus, UniProt Q8RQE8 1-1524)
Chain of Thermus thermophilus RNA polymerase β' subunit (Q8RQE8 whole entry): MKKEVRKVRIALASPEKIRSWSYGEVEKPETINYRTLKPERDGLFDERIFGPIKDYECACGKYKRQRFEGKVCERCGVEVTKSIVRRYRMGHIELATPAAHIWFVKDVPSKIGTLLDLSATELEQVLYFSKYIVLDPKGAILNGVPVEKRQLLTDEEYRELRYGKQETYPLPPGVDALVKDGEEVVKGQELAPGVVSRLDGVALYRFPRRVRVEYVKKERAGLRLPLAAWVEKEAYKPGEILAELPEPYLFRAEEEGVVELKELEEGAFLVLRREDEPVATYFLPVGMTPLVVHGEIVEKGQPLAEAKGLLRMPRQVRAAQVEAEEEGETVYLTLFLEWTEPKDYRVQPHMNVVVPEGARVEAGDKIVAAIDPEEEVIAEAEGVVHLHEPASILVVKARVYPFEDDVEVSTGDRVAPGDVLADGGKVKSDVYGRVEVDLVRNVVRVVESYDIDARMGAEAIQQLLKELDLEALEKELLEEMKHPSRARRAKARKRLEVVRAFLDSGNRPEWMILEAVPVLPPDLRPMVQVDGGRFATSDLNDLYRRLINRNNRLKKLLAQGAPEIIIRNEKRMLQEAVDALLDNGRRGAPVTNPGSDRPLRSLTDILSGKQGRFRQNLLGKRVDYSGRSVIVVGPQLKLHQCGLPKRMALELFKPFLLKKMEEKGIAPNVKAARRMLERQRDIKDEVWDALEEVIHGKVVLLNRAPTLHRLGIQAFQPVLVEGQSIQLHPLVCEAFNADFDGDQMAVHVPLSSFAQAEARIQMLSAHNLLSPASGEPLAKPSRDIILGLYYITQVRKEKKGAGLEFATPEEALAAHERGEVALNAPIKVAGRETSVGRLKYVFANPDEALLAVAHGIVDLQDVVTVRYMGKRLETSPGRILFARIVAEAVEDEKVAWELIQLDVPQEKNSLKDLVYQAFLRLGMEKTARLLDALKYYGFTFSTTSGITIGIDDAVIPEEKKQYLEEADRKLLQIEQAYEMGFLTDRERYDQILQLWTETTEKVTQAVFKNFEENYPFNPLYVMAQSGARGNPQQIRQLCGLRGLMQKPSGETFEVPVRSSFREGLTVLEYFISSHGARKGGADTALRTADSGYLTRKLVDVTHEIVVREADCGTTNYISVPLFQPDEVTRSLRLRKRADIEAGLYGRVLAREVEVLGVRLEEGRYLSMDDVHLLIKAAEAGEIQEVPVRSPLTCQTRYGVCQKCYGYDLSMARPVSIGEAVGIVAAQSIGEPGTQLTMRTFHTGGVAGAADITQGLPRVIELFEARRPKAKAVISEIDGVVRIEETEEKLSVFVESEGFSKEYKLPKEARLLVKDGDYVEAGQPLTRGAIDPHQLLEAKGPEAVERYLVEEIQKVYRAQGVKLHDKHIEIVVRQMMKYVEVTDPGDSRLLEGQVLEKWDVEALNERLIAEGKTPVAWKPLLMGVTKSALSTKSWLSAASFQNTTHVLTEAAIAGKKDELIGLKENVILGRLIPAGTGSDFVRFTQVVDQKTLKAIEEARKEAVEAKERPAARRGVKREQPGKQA

cryo-EM structure = biological target: the molecule itself
[3] = biological target: Thermus thermophilus RNA polymerase β subunit (Thermus thermophilus, UniProt Q8RQE9 1-1119)
Chain of Thermus thermophilus RNA polymerase β subunit (Q8RQE9 whole entry): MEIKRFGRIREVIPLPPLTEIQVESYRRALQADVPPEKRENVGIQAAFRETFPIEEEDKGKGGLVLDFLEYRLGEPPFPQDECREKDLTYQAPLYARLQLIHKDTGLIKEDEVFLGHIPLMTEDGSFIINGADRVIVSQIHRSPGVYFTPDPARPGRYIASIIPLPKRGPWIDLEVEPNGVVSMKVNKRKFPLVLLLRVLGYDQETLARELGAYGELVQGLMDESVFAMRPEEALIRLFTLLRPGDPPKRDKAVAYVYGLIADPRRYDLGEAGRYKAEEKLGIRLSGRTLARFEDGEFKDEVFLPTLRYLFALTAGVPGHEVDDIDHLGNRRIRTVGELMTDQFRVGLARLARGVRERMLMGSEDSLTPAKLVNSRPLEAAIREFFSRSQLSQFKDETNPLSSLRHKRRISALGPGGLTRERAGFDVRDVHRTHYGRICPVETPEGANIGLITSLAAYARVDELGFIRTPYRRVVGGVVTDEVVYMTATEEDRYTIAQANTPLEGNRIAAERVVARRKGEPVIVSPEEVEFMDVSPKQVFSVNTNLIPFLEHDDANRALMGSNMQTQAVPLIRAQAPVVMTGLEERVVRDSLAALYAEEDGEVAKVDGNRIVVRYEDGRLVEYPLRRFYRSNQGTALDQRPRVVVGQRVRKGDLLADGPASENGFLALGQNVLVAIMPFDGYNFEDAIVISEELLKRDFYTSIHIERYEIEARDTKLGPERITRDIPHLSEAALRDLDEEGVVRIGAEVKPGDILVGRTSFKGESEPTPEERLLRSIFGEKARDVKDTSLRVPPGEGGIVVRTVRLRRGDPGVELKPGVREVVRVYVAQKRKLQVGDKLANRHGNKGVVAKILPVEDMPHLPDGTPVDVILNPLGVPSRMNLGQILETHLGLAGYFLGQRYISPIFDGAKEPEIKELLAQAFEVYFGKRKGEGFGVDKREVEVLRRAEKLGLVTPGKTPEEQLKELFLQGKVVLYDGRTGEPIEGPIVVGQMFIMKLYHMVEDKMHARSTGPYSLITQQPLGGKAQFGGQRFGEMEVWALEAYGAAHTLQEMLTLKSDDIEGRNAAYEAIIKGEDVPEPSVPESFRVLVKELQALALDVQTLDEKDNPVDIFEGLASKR

| binding result [1] | binding result [2] | binding result [3] | Binder | stoichiometry N (cryo-EM structure) |
| --- | --- | --- | --- | --- |
| binds |  |  | B1 |  |
|  | binds | binds | B2 | 6 |
